Source: patent publication US7067277B1, “Chimeric G proteins and uses thereof” (H. Lundbeck A/S, priority 1999, dated 2006)
Residue numbers refer to the chain shown, from its start.

T1: Rat GALR1 (Rattus norvegicus, UniProt Q62805)
T1 construct: linearized plasmids or PCR products containing the complete coding region of the genes; expressed in transfected cells; host or cells: Xenopus laevis oocytes (receptor cRNA injected)
T1 sequence (Q62805 1-346): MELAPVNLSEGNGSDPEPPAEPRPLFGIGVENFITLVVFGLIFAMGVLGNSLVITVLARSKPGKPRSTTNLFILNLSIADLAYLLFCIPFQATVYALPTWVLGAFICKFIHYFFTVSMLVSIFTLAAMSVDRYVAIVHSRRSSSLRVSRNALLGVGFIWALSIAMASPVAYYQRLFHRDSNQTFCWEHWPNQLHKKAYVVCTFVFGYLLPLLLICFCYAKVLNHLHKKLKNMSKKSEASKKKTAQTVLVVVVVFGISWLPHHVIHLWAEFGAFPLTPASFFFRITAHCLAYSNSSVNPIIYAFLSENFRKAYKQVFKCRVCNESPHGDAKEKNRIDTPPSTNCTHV

T2: Rat Y5 (Rattus norvegicus, UniProt Q63634)
T2 construct: linearized plasmids or PCR products containing the complete coding region of the genes; expressed in transfected cells; host or cells: Xenopus laevis oocytes (receptor cRNA injected)
T2 sequence (Q63634 1-445): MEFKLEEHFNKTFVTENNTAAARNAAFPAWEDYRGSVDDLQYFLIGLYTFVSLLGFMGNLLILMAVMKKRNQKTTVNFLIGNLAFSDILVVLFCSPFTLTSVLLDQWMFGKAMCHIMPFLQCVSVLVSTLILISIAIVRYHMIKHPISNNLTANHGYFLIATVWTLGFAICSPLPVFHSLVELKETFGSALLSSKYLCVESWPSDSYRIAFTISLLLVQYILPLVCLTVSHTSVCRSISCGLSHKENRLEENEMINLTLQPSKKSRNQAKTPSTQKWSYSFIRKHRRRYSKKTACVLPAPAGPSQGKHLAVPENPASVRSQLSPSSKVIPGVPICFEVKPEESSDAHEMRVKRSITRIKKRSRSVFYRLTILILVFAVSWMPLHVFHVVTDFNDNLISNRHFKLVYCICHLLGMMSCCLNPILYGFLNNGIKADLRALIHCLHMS

B1: cGαq/z5: chimeric Gα subunit: C-terminal final 5 amino acids of C. elegans Gαq replaced with those of hGαz (SEQ ID NO: 1) (protein)
chain: MACCLSEEAREQKRINQEIEKQLQRDKRNARRELKLLLLGTGESGKSTFIKQMRIIHGQGYSEEDKRAHIRLVYQNVFMAIQSMIRAMDTLDIKFGNESEELQEKAAVVREVDFESVTSFEEPYVSYIKELWEDSGIQECYDRRREYQLTDSAKYYLSDLRRLAVPDYLPTEQDILRVRVPTTGIIEYPFDLEQIIFRMVDVGGQRSERRKWIHCFENVTSIMFLVALSEYDQVLVECDNENRMEESKALFRTIITYPWFTNSSVILFLNKKDLLEEKILYSHLADYFPEYDGPPRDPIAAREFILKMFVDLNPDADKIIYSHFTCATDTENIRFVFAAVKDTILQHNLKYIGLC
modifications: C. elegans
B2: cGαq/z9: C. elegans Gαq with Gαz portion of the C-terminal tail extended to 9 amino acids (SEQ ID NO: 2) (protein)
chain: B1 chain with H347N
modifications: C. elegans

Tests used:
Format in all cases: cell-based
Rat GALR1 = target: T1, Rat GALR1; experiment: Cl- current recording in Xenopus oocytes expressing GPCR and chimeric G protein; conditions: Xenopus oocytes expressing Rat GALR1 and chimera; mean ± s.e.m
Method: (§1) Oocytes were harvested from Xenopus laevis and injected with mRNA transcripts as previously described (Quick and Lester, 1994; Smith et al., 1997). Receptor and chimeric G protein α subunit RNA transcripts were synthesized using the T7 polymerase (“Message Machine,” Ambion) from linearized plasmids or PCR products containing the complete coding region of the genes. Oocytes were injected with 5–25 ng synthetic receptor RNA and incubated for 3–8 days at 17 degrees. Three to eight hours prior to recording, oocytes were injected with 500 pg chimeric Gα subunit mRNA. Dual electrode voltage clamp (Axon Instruments Inc.) was performed using 3 M KCl-filled glass microelectrodes having resistances of 1–2 MOhm. Unless otherwise specified, oocytes were voltage clamped at a holding potential of −80 mV. During recordings, oocytes were bathed in continuously flowing (1–3 ml/min) medium containing 96 mM NaCl, 2 mM KCl, 1.8 mM CaCl2, 1 mM MgCl2, and 5 mM HEPES, pH 7.5 (ND96). Drugs were applied by local perfusion from a 10 μl glass capillary tube fixed at a distance of 0.5 mm from the oocyte. Experiments were carried out at room temperature. All values are expressed as mean±standard error of the mean.

Human NPFF2 = target: T3, Human NPFF2 (Homo sapiens, UniProt Q9Y5X5); experiment: as above; conditions: Xenopus oocytes expressing Human NPFF2 and chimera; mean ± s.e.m
T3 construct: linearized plasmids or PCR products containing the complete coding region of the genes; expressed in transfected cells; host or cells: Xenopus laevis oocytes (receptor cRNA injected)
Method: as §1

[1] = test system: GALR1, Y1, NPFF2, and 5HT1D; experiment: Cl- current recording in Xenopus oocytes, C. elegans versus human chimera
Method: as §1

Rat Y5 = target: T2, Rat Y5; experiment: Cl- current recording in Xenopus oocytes expressing GPCR and chimeric G protein; conditions: Xenopus oocytes expressing Rat Y5 and chimera; mean ± s.e.m
Method: as §1

T3 sequence (Q9Y5X5 103-522): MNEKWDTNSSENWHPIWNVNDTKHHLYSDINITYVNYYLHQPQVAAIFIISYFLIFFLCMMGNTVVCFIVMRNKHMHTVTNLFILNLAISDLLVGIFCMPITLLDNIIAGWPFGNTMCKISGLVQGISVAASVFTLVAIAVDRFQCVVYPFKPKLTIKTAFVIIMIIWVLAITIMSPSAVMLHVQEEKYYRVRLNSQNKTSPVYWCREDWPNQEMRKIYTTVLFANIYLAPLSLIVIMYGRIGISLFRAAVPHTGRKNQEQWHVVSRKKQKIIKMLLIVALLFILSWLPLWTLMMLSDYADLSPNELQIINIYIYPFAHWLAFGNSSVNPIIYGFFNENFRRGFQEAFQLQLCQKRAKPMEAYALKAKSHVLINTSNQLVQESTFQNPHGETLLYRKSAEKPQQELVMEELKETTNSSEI

Molecule	Response amplitudes (nA) in oocytes (Rat GALR1) [nA]	Response amplitudes (nA) in oocytes (Human NPFF2) [nA]	increase in response over currents from oocytes expressing the human version of the chimera [1]	Response amplitudes (nA) in oocytes (Rat Y5) [nA]
B1	91 ± 38	1121 ± 261	2–3 fold	
B2				65 ± 34
